This note sets out measurements from the supplement of paper PMC9112550, “Optimization of the antimicrobial peptide Bac7 by deep mutational scanning” (BMC Biology, 2022).

The test system of this data set is Escherichia coli TOP10. Briefly: shrunken log2 fold change of peptide-encoding DNA abundance (4.5 h post-induction vs induction); higher = less antimicrobial activity (less host growth inhibition). Conditions: time post-induction: 4.5 h; library: site-saturation at positions 5, 18, 19, 20.
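Note: peptides expressed intracellularly from a pBAD plasmid library in pooled LB shake-flask culture, induced with 0.3% L-arabinose, DNA abundance read by NGS, three biological replicates, DESeq2 with apeglm shrinkage.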

Turning to RRIRRRPPRLPRPRPRPYTAPRP, the “shrunken log2 fold change” value is -0.447.

In the case of RRIRLRPPRLPRPRPRPRSYPRP, the “shrunken log2 fold change” value was -0.227. As for RRIRIRPPRLPRPRPRPWPFPRP, the “shrunken log2 fold change” value is -0.259. With RRIRQRPPRLPRPRPRPRHRPRP the figure was 0.16; with RRIRNRPPRLPRPRPRPVSGPRP, 0.172; with RRIRYRPPRLPRPRPRPRGGPRP, 0.139.

For RRIRARPPRLPRPRPRPQTNPRP, the “shrunken log2 fold change” value was found to be 0.36.

In the case of RRIRGRPPRLPRPRPRPCWSPRP, the “shrunken log2 fold change” value is 0.144. With RRIRDRPPRLPRPRPRPYIHPRP the figure was -0.117. With RRIRCRPPRLPRPRPRPKVYPRP the figure was -0.167; with RRIRARPPRLPRPRPRPLCQPRP, 0.42.

Turning to RRIRIRPPRLPRPRPRPMYYPRP, the “shrunken log2 fold change” value was -0.32. The result for RRIRFRPPRLPRPRPRPRYWPRP reads -0.0206; that for RRIRSRPPRLPRPRPRPQIMPRP, 1.11; that for RRIRKRPPRLPRPRPRPLFKPRP, 0.11. The result for RRIRARPPRLPRPRPRPFKGPRP reads -0.104. The result for RRIRFRPPRLPRPRPRPTYCPRP reads -0.339; that for RRIRCRPPRLPRPRPRPMGAPRP, 0.144.

With RRIRFRPPRLPRPRPRPYHAPRP, the “shrunken log2 fold change” value is -0.0961. With RRIRDRPPRLPRPRPRPEHRPRP the figure was -0.01; with RRIRPRPPRLPRPRPRPDLGPRP, 0.215. RRIRSRPPRLPRPRPRPHHRPRP: the “shrunken log2 fold change” value was -0.43. Take RRIRWRPPRLPRPRPRPDHWPRP: the “shrunken log2 fold change” value stood at 0.109. The result for RRIRFRPPRLPRPRPRPIGCPRP reads -0.111; that for RRIRYRPPRLPRPRPRPYYGPRP, -0.0846. With RRIRKRPPRLPRPRPRPNWSPRP the figure was 0.139. The result for RRIRQRPPRLPRPRPRPWVYPRP reads -0.264; that for RRIRGRPPRLPRPRPRPQTFPRP, 0.762.

On to RRIRLRPPRLPRPRPRPWIIPRP, for which the “shrunken log2 fold change” value was -0.631. The result for RRIRWRPPRLPRPRPRPLLFPRP reads -0.0366.

RRIRGRPPRLPRPRPRPCDWPRP: the “shrunken log2 fold change” value stood at 0.519.

Take RRIRGRPPRLPRPRPRPCRKPRP: the “shrunken log2 fold change” value was -0.079. With RRIRMRPPRLPRPRPRPRWYPRP the figure was 0.0191.

With RRIRKRPPRLPRPRPRPASIPRP, the “shrunken log2 fold change” value was found to be 0.0215. Take RRIRIRPPRLPRPRPRPNDWPRP: the “shrunken log2 fold change” value was determined as 0.0555. Consider RRIRNRPPRLPRPRPRPTPEPRP, for which the “shrunken log2 fold change” value was determined as 0.0889. With RRIRPRPPRLPRPRPRPWKAPRP the figure was -0.133; with RRIRMRPPRLPRPRPRPIRVPRP, 0.335. Take RRIRLRPPRLPRPRPRPNAPPRP: the “shrunken log2 fold change” value stood at 0.0456. For the sequence RRIRKRPPRLPRPRPRPMTHPRP, the “shrunken log2 fold change” value was -0.00695.

For the sequence RRIRYRPPRLPRPRPRPMSEPRP, the “shrunken log2 fold change” value was found to be 0.0461. With RRIRPRPPRLPRPRPRPDFWPRP the figure was 0.527. For the sequence RRIRFRPPRLPRPRPRPHQWPRP, the “shrunken log2 fold change” value is -0.0612. With RRIRPRPPRLPRPRPRPRPSPRP the figure was 0.333; with RRIRARPPRLPRPRPRPTSMPRP, 0.127. With RRIRFRPPRLPRPRPRPECGPRP the figure was 0.175; with RRIRFRPPRLPRPRPRPGQRPRP, 0.686; with RRIRWRPPRLPRPRPRPPRAPRP, 0.782. With RRIRQRPPRLPRPRPRPRWQPRP the figure was 0.0759; with RRIRLRPPRLPRPRPRPYIPPRP, -0.669; with RRIRLRPPRLPRPRPRPHIHPRP, -0.29.

As to RRIRYRPPRLPRPRPRPYTWPRP, the “shrunken log2 fold change” value is -0.571. The result for RRIRFRPPRLPRPRPRPESFPRP reads 0.0272; that for RRIRRRPPRLPRPRPRPFLDPRP, 0.0172. The result for RRIRFRPPRLPRPRPRPETNPRP reads 0.127.

Take RRIRHRPPRLPRPRPRPHAEPRP: the “shrunken log2 fold change” value was -0.0216.

RRIRGRPPRLPRPRPRPLHAPRP: the “shrunken log2 fold change” value worked out at 1.54.

On to RRIRRRPPRLPRPRPRPESIPRP, for which the “shrunken log2 fold change” value is -0.195. The result for RRIRERPPRLPRPRPRPKQCPRP reads -0.354; that for RRIRKRPPRLPRPRPRPTQGPRP, 0.909.

Regarding RRIRPRPPRLPRPRPRPRSEPRP, the “shrunken log2 fold change” value was 0.564.

Turning to RRIRFRPPRLPRPRPRPNSAPRP, the “shrunken log2 fold change” value is -0.603. The result for RRIRNRPPRLPRPRPRPYFFPRP reads -0.482; that for RRIRIRPPRLPRPRPRPMFAPRP, -0.00719; that for RRIRRRPPRLPRPRPRPGLIPRP, 0.238. With RRIRERPPRLPRPRPRPEEVPRP the figure was -0.00101. As for RRIRTRPPRLPRPRPRPDYCPRP, the “shrunken log2 fold change” value was -0.125. The result for RRIRPRPPRLPRPRPRPVDEPRP reads 0.0247; that for RRIRWRPPRLPRPRPRPRNDPRP, 0.126. The result for RRIRQRPPRLPRPRPRPGQPPRP reads 0.385. The result for RRIRCRPPRLPRPRPRPVASPRP reads 0.149; that for RRIRVRPPRLPRPRPRPCIWPRP, 0.0495; that for RRIRWRPPRLPRPRPRPGKTPRP, 0.0109. On to RRIRDRPPRLPRPRPRPMKQPRP, for which the “shrunken log2 fold change” value is -0.076. Take RRIRCRPPRLPRPRPRPRVRPRP: the “shrunken log2 fold change” value was determined as 0.197.

With RRIRARPPRLPRPRPRPFQAPRP, the “shrunken log2 fold change” value came to 0.0111. The result for RRIRARPPRLPRPRPRPFPWPRP reads 0.477; that for RRIRSRPPRLPRPRPRPTNWPRP, 0.0446; that for RRIRTRPPRLPRPRPRPFREPRP, -0.0376. The result for RRIRFRPPRLPRPRPRPFHKPRP reads -1.02; that for RRIRRRPPRLPRPRPRPLQRPRP, 0.969; that for RRIRKRPPRLPRPRPRPTRRPRP, 0.964. The result for RRIRGRPPRLPRPRPRPDMSPRP reads 0.0457. Take RRIRIRPPRLPRPRPRPNRHPRP: the “shrunken log2 fold change” value is -0.0899.

RRIRWRPPRLPRPRPRPSAGPRP: the “shrunken log2 fold change” value was 0.231. With RRIRPRPPRLPRPRPRPFKFPRP the figure was -0.469; with RRIRIRPPRLPRPRPRPHKFPRP, -0.291; with RRIRCRPPRLPRPRPRPCVYPRP, -0.411. With RRIRARPPRLPRPRPRPSKQPRP the figure was 0.0216; with RRIRSRPPRLPRPRPRPTPRPRP, 0.843; with RRIRPRPPRLPRPRPRPSYYPRP, -0.721. With RRIRERPPRLPRPRPRPSSPPRP the figure was -0.824; with RRIRLRPPRLPRPRPRPALGPRP, 0.935.

For RRIRERPPRLPRPRPRPMSEPRP, the “shrunken log2 fold change” value came out at 0.0552. With RRIRTRPPRLPRPRPRPRPEPRP the figure was 0.238. With RRIRARPPRLPRPRPRPNEVPRP the figure was 0.0341. Turning to RRIRSRPPRLPRPRPRPWGCPRP, the “shrunken log2 fold change” value came to 0.032.

On to RRIRIRPPRLPRPRPRPLQSPRP, for which the “shrunken log2 fold change” value is -0.0353. The result for RRIRMRPPRLPRPRPRPFFAPRP reads 0.445. The result for RRIRDRPPRLPRPRPRPYYLPRP reads -0.134. The result for RRIRQRPPRLPRPRPRPSAVPRP reads -0.126; that for RRIRCRPPRLPRPRPRPEYCPRP, -0.0902; that for RRIRKRPPRLPRPRPRPIETPRP, 0.00938.

RRIRVRPPRLPRPRPRPRCCPRP: the “shrunken log2 fold change” value came to 0.201. The result for RRIRYRPPRLPRPRPRPFYGPRP reads 0.0392; that for RRIRERPPRLPRPRPRPWIMPRP, -0.277; that for RRIRWRPPRLPRPRPRPNAIPRP, -0.123.

With RRIRVRPPRLPRPRPRPCVYPRP, the “shrunken log2 fold change” value is -0.136. Turning to RRIRNRPPRLPRPRPRPMLLPRP, the “shrunken log2 fold change” value is -0.0366. With RRIRKRPPRLPRPRPRPWGDPRP the figure was 0.499. The result for RRIRHRPPRLPRPRPRPMPYPRP reads -0.00164; that for RRIRERPPRLPRPRPRPLMCPRP, -0.267; that for RRIRKRPPRLPRPRPRPRTDPRP, 0.206. The result for RRIRARPPRLPRPRPRPQCGPRP reads 0.436; that for RRIRIRPPRLPRPRPRPEHMPRP, -0.0778; that for RRIRYRPPRLPRPRPRPMWIPRP, -0.526. Regarding RRIRQRPPRLPRPRPRPFQWPRP, the “shrunken log2 fold change” value turned out to be 0.0154. The result for RRIRCRPPRLPRPRPRPPPLPRP reads 1.15; that for RRIRWRPPRLPRPRPRPRAHPRP, 0.167. With RRIRDRPPRLPRPRPRPPKKPRP the figure was 0.0806; with RRIRLRPPRLPRPRPRPDKRPRP, -0.175. With RRIRMRPPRLPRPRPRPCQLPRP the figure was -0.00804. For RRIRTRPPRLPRPRPRPVQCPRP, the “shrunken log2 fold change” value came to 0.00249. With RRIRGRPPRLPRPRPRPLYVPRP the figure was 0.0628. With RRIRSRPPRLPRPRPRPSEYPRP the figure was -0.306.
